{"source": "paper PMC3222871", "target": "T1, human POT1 (human, UniProt Q9NUX5 1-634)", "T1 sequence": "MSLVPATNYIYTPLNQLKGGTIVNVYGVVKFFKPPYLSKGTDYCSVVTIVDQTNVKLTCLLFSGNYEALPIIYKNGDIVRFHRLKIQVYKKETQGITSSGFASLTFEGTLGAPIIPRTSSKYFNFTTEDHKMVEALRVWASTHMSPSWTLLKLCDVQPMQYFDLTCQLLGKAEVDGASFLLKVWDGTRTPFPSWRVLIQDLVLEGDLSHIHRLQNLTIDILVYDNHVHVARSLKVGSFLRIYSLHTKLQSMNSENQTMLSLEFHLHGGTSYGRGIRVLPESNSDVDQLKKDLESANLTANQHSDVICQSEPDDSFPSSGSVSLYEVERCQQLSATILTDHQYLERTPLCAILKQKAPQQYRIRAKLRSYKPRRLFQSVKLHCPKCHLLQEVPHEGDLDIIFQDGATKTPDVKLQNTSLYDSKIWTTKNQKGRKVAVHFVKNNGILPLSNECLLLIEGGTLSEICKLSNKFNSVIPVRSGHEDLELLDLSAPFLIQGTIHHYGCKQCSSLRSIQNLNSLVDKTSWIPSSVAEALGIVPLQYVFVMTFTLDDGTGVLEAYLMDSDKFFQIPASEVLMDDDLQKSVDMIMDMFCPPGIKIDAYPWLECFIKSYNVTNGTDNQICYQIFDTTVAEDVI", "experiment": "EMSA", "data": [{"binder": "TTTTTTTTTTTTTTTTTTTTTTTTTTTTTTTTTT (ssDNA)", "note": "[dT34]", "values": [{"measurement": "binding result", "value": "no binding"}]}]}
